This is an account of results in patent publication US20110293610A1 (published 2011).

The target of assay [1] is T1, B Lymphocyte Stimulator, soluble form (human) (human, UniProt Q9Y275 134-285, biotinylated with NHS-biotin where used as biotinylated B Lymphocyte Stimulator).
T1 construct: Coated on plastic, captured on streptavidin plates, amine-coupled to a CM5 chip or free in solution, depending on the assay; also called BLyS; immobilized B Lymphocyte Stimulator
In words: phage ELISA.

Assay [2] has as its target T2, HIS-tagged B Lymphocyte Stimulator (human, UniProt Q9Y275 71-285).
T2 construct: Expressed in E. coli from pQE9 and purified; also called histidine-tagged B Lymphocyte Stimulator; HIS-B Lymphocyte Stimulator; not shown: histidine tag of the pQE9 vector
In words: phage ELISA.

Assay [3] deals with T3, membrane-bound B Lymphocyte Stimulator on U937 plasma membrane preparations (human, UniProt Q9Y275 1-285).
T3 construct: Natural protein in plasma membrane fractions of the human cell line U937 coated on ELISA plates; also called U937 plasma membranes; U937 membranes
In words: phage ELISA. (In general: ELISA stands for enzyme-linked immunosorbent assay.)

Assay [4] addresses T2, HIS-tagged B Lymphocyte Stimulator. The assay is described as follows: BIAcore, purified scFv over low density (500 RU) HIS-BLyS surface. The method, then:
The chip containing the low density HIS-B Lymphocyte Stimulator surface was inserted into the BIAcore. […] The dilution series was then injected sequentially over the blank control (flow cell 1) and low density HIS-B Lymphocyte Stimulator surface (flow cell 2) using the following program: […]
For orientation: In SPR one partner is held on a chip, and binding of the other changes the refractive index at the surface.

The target of assay [5] is T1, B Lymphocyte Stimulator, soluble form …. The assay is described as follows: cell-based or functional assay.
Assay [6] has the same target. The assay is described as follows: BIAcore, IgG1 captured on low-density Protein A surface, BLyS passed over. The procedure:
Briefly, antibodies were captured on low-density Protein A surfaces and B Lymphocyte Stimulator was passed over at various flow rates. The binding of B Lymphocyte Stimulator to immobilized antibody was detected by changes in […] that were proportional to the amount of bound B Lymphocyte Stimulator. Binding values were calculated using software provided by the manufacturer.

The target is the same in assay [7]. In words: BIAcore 2000, purified scFv over low density (500 RU) BLyS surface.
Assay [8] has the same target. The assay is described as follows: phage competition ELISA on P388 plasma membranes. The method, then:
P388 plasma membranes (50 μl per well) were coated at 10 μg/ml in PBS onto Falcon 96-well plates overnight at 4° C. The method is otherwise essentially as described Example 16.

B1: I082A02 (scFv)
scFv: QVQLVQSGAEVKEPGASVKISCEASGYTFTNNFIDWVRQAPGQGLEWMGTISGSTGNTYYKQGFQGRVTMTRDTATSTAYLEVRGLTSEDTAIYFCARPAASSRGPKDAFDIWGQGTLVTVSSGGGGSGGGGSGGGGSQSVLTQPPSVSAAPGQKVTISCSGSTSNIGNNYVSWYQQHPGKAPKLMIYDVSKRPSGVPDRFSGSKSGNSASLDISGLQSEDEADYYCAAWDDSLSEFLFGTGTKLTVLG
As to B1, the binding result in assay [1] is reported as “no binding”; in assay [2] it was “binds”; in assay [3] it was “binds”.

B2: I079C01 (scFv)
scFv: EVQLVESGGGLVQPGGSLRLSCAASGFTFSDYGMHWVRQRPGKGLEWIAFIGSDGSNKYYGDTVKGRFTISRDNAKNSLYLQMNSLRAEGTAVYYCARDWDMDVWGQGTMVTVSSGGGGSGGGGSGGGGSHVILTQPRSVSGSPGQSVTISCTGTSSDVGGYHYVSWYQQHPGKAPRLMIYEVTKRPSGVSNRFSGSKSGNTASLTISGVQAEDEADYYCSSYTSASTVIFGGGTKLTVLG
In the case of B2, the binding result in assay [1] is listed as “no binding”; in assay [2] it was “binds”; in assay [3], “binds”.

B3: I082C03 (scFv)
scFv: QVQLVQSGSEVKKPGASVKVSCKTSGYSFTGYFIHWVRQAPGQGLEWMGWINPNSGGTNLAQKFQGRVTMTRDTSISTAYMELSSLKSDDTAVYYCARDASRDIVVLPLAIWGKGTLVTVSSGGGGSGGGGSGGGGSDIQMTQSPSTLSASIGDRVTITCRASEGIYHWLAWYQQKPGKAPKLLIYKASSLASGAPSRFSGSGSGTDFTLTISSLQPDDFATYYCQQYSNYPLTFGGGTKLEIKR
In assay [4], B3 came in with a Kd of 20000 pM and a koff of 0.002 s⁻¹.

B4: I006D08 (whole IgG1) (antibody, V domains shown)
VH: QVQLQQSGAEVKKPGSSVRVSCKASGGTFNNNAINWVRQAPGQGLEWMGGIIPMFGTAKYSQNFQGRVAITADESTSTASMELSSLRSEDTAVYYCARSRDLLLFPHYGMDVWGRGTMVTVSS
VL: SSELTQDPAVSVALGQTVRVTCQGDSLRSYYASWYQQKPGQAPVLVIYGKNNRPSGIPDRFSGSSSGNTASLTITGAQAEDEADYYCNSRDSSGNHWVFGGGTELTVLG
notes: constant regions (human IgG1)
Turning to B4, the “IC50 for the inhibition of human B Lymphocyte Stimulator induced-proliferation of murine B cells (3H-thymidine incorporation)” value in assay [5] was 90 pM. Besides, in assay [6], the “fold higher Kd than I116A01” value is about 2 fold and the “fold higher off rate (kd) than I116A01” value came to 2 fold.

B5: I116A01 (whole IgG1) (antibody, V domains shown)
VH: QVQLQQSGAEVKKPGSSVRVSCKASGGTFNNNAINWVRQAPGQGLEWMGGIIPMFGTAKYSQNFQGRVAITADESTGTASMELSSLRSEDTAVYYCARSRDLLLFPHHALSPWGRGTMVTVSS
VL: SSELTQDPAVSVALGQTVRVTCQGDSLRSYYASWYQQKPGQAPVLVIYGKNNRPSGIPDRFSGSSSGNTASLTITGAQAEDEADYYCSSRDSSGNHWVFGGGTELTVLG
Regarding B5, in assay [5], the “IC50 for the inhibition of human B Lymphocyte Stimulator induced-proliferation of murine B cells (3H-thymidine incorporation)” value was 60 pM.

B6: I003C02 (scFv)
scFv: EVQLVQSGAEVKKPGSSVKVSCQASGGNFNSYGVSWVRQAPGQGLEWMGRIIPNVGTANYAQKFQGRVTITADKLTSTVYLEVRSLRSEDTAVYYCARGDYDILTGYPAECFQIWGQGTMVTVSSGGGGSGGGGSGGGGSAQAVLTQPSSASGTPGQRVTISCSGSTSNIGTNTVNWYQQLPGTAPKLLIYSNHLRPSGVPDRFSGSKSGTSASLAISGLQSEDEADYYCSARDDSLNGVVFGGGTKVTVLG
For B6, the koff in assay [7] is 0.006 s⁻¹.

B7: I099D03 (scFv)
scFv: QVQLVQSGAEVKKPGASVRVSCKSSGYTFTNYGISWVRQAPGQGLEWMGWISNNNGKTYYAQKVQGRVTMTTDTSTSTDYMELRGLRSDDTAIYYCARDNGGGTIGFDYWGRGTLVTVSSGGGGSGGGGSGGGGSAQAVLTQPSSVSGAPGQRVTMSCTGSSSNIGAGYDVHWYQQLPGTAPKLLIYDNTNRPSGVPDRFSGSRSGTSASLAITGLQAEDEADYFCQSYDITLSAVFGTGTKVTVLG
B7: the binding result in assay [8] is recorded as “no binding”.

In general, Kd refers to the concentration at which binding is half-saturated. In general, koff refers to a measure of how fast the partners let go of each other. The low end stands for a long-lived complex, the high end for a short-lived complex.
